Data as given in the domain aggregation screens of Martell et al. (2025).

Assay: soluble fraction after stress (log2 fold change); higher = more stays soluble; pooled small domains, quantitative proteomics
Settings: stress: pH 4
Summary of the method: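 High-throughput quantitative proteomics was run on pooled custom libraries of small protein domains following pH 4 stress. Fold changes are on a log2 scale; higher values mean more of a domain remained soluble. The fold change in soluble amount is taken as a measure of aggregation propensity.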

Sequence: HMNTEFDVPDVVGKTLDEAEFVLKGSNLKRGLIMPVDDPSKAPGTIVRQNPEAGAGNKIRVGDVVDLWVVG
- soluble fraction (log2): 0.187

Sequence: HMNTELSPKVWDVVQEFILYRKEIKAPMTEHAVKLLIGQLQKLSSDPDEQIEILRQSIVNGWKGIFSLK
- soluble fraction (log2): -0.992

Sequence: HMNTGTTISYSDFRDRVASGTVKEVQISDDRITGVLKNDETFNTVPVGNDSGLTKLLDDNGVTYSGTP
- soluble fraction (log2): 0.212

Sequence: HMNTIFSVNGPVVKVKDTKDFSMMEMVYVGEKKLIGEVIGITESFTTIQVYEVTTGLKVGEPVYTTGAPM
- soluble fraction (log2): 0.166

Sequence: HMNTIIHPIRLAYVDSGSIKSMAEQAEIDVKILTSEANSQIFWAIGDEKQIDRLYNLISQVDIIQNK
- soluble fraction (log2): -1.42

Sequence: HMNTKHVFIIEQDDEKKRLDIFLVEKLQDSRSFLKKGIVEGWVKVNESVVKPNYKLKQKDQITVIIPP
- soluble fraction (log2): -0.396

Sequence: HMNTNDFTIGTRVRTTKKGNGSSDGTSNTARSGIEGTITRIIPEAKYPYLVSTTVPMGWYKKDALEK
- soluble fraction (log2): 0.157

Sequence: HMNTPLYLKIREQIFDALRSGRWAANDPLPSETKLASEFEVSQGTIRKAIDDLVAQNILYRHQGRGTFIRR
- soluble fraction (log2): 0.125

Sequence: HMNTSSVTVHYQDEAGKSLADTVTLTGKVGETYSSEQKKITGYNFKEVRGNPKGQFTTEAQTVTYVYTQAA
- soluble fraction (log2): -0.195

Sequence: HMNTWVEIFRAEDQGQIRDASLVLLAVKVAHRVDMNSSSAPWSLMVPAQDQQRAHHELTTYWQENAH
- soluble fraction (log2): -1.35

Sequence: HMNVAELIEGHEAEIAEVLKEFSLLYLMRLADELGEMTKSSSGNGPFQVLKGLVYEEIARRG
- soluble fraction (log2): -0.416

Sequence: HMNVAVPTPADKRKVRVMKADINAKLRVNDANGAYAVYEELKEWVTLKGFTEWNDDLSKLSETMGSMKRKV
- soluble fraction (log2): -0.0387

Sequence: HMNVDALVGQRGRVTQTFDPGLRLGRVAVGGDDWRAETTTDQPLREGDLVEVVSVESNTLIVRPIA
- soluble fraction (log2): 0.0146

Sequence: HMNVDSLIGQTARVIVDINNNDSIGYALVGGQEWTARAENDNDIIPKDTLVEIVGVSGVKLIVRRKE
- soluble fraction (log2): -0.0794

Sequence: HMNVDSLVGSEARVTAEIDNRKETGTAMVNGQEWTARAESDEEIYPVGTIVEIRKIQGVKLIVSTH
- soluble fraction (log2): 0.18

Sequence: HMNVEATAETLLALLKKNGGSLPFGDKSDPEAIQSQLKMSKKTFKKAAGTLFKKKLVRIEDHGIFL
- soluble fraction (log2): 0.0517

Sequence: HMNVEGEVVVPNVIGRTMKDVAVILSDLGLRMEAEGTGVAKSSQPQHGTSVKRGTVVQVRFEPLSVN
- soluble fraction (log2): -0.201

Sequence: HMNVEKLREMYPEGTKIILQEMQGESRMAKGLKGTVTHVDDAGQIHMKWENGSSLVLNVEVDTFKKIE
- soluble fraction (log2): -0.562

Sequence: HMNVEVDSIGDDDFLVKVSAGTSTEHRVTLTDAYWEQIWSSSLPKKEIISLSFAFLLEREPNSSIMRT
- soluble fraction (log2): -0.937

Sequence: HMNVNALIGQEGIVIKEINSGSNKIGQVKISGDTWSAVTTNDFTNAIPVGSNVKILKIDGVNLIVEPVY
- soluble fraction (log2): 0.207

Sequence: HMNVNVSFTQLRHKAEHAIQAKNWSEARNLLTLATLMRPTHRNVARRLKAVEQRNRLFRRLLLILTHRKV
- soluble fraction (log2): -0.229

Sequence: HMNVPFGFDEVNGKLVKNEEEQAIISEIKSLKNKGLSLRKIAEALNGRGIATKNGKAWTAVQIQRIA
- soluble fraction (log2): 0.22

Sequence: HMNVPLYIMIESAVEQRLLDGTYQVGKMIPTEFELMDEFSVSRETVRKAINLLVQRGKLEKKRGIGTFVAS
- soluble fraction (log2): -0.26

Sequence: HMNVSDIENKLNEMLSPLEKKVMVLYLEGKSYVEIGELLGRHTKSVDNALQRVKRKLEIYLKNRK
- soluble fraction (log2): 0.295

Sequence: HMNVTIGESIKNVINHYGTPIYSYNPNNQEKYYEFHTNKGVLVVTAIGKKNTGYVTRVSMTY
- soluble fraction (log2): -0.175

Sequence: HMNVVDTGTDANYRVKISAVNLNMRLGPSTSYKSKGYITPGNYTIIKTSGDWGKVKETGYWVALKYTSKIN
- soluble fraction (log2): 0.175

Sequence: HMNVVINNELVSLMVEAMKDGVSSKSIQEEFEGYKISGKTITKKVLTAHVNKALEVFADMQE
- soluble fraction (log2): -0.477

Sequence: HMNYDPEEKITQIRTMLEIHSRIEFNEIITPATRRGEIIIIFLALLHMIKRGYIVVRQHRLFGDITIFARD
- soluble fraction (log2): 0.22

Sequence: HMNYKDQISRYFQQAFHIYPKYQTMKNEEGNFTSKIFKDDKMIIEGVGKSKKKAEQDVSRKALIHFNVL
- soluble fraction (log2): 0.398

Sequence: HMNYKNAIGQVGSVYVPIPPNREGLGQIEVKVQSRVSTVRAVSDHSERLENRVAVRVIELVDDRTLLVEKL
- soluble fraction (log2): -1.13

Sequence: HMNYTSEDIKLASELFFHLLNNRILPANDVLASQYYDNNEIREILENMAEEGGLRIFGTRENLHLVSNGE
- soluble fraction (log2): -1.21

Sequence: HMNYYDLLGIPKSATKQQIRKAYRTKAKEFHPDVNGPFNSHMHFLLLKQAYETLMDANMRHVYDMALIS
- soluble fraction (log2): 0.215

Sequence: HMPADHYEVLGIARDADAAEVKRAYRRLARESHPDANHGDSGAEVRFKAVSAAYEVLSDPERRARYDRFGH
- soluble fraction (log2): -0.257

Sequence: HMPANVELLRTFTNKTGTKIKARIVAVSDNKVKLIRDDSKKFIVPIDSLSEEDQKYLKDWIANEVGEQ
- soluble fraction (log2): 0.133

Sequence: HMPARTANEEAIRKYLLNHDSITRKETQALLKTGQSAAGRILKEMVENGWLARIGNGRSTGYELR
- soluble fraction (log2): 0.244

Sequence: HMPATIEGIRLYLSSGLIKGVGEEMASRIVKAFGTDTIRVLDEEPERLLKVRGVGKKSLDRIRTSWAEH
- soluble fraction (log2): -0.585

Sequence: HMPATPDATVQAVQQRLNELGYDVGSADGLMGRGTRSAIIAFQQDRGLAATGVADQALLLQLQP
- soluble fraction (log2): -0.0545

Sequence: HMPAWKINQELQATVIATKANQTRLRIEGQTFETQTAIALKPGQSLLIKVVSLEPQISFALI
- soluble fraction (log2): 0.199

Sequence: HMPDFLAELAARMERDAVTEAQIRQVVAQKGHYPEEVSPAQYHPDFFRQWLFPHWEKIVDVIRSSPEYTP
- soluble fraction (log2): -0.539

Sequence: HMPDGTATATASVNVRSGASTLSPVLGVLRVGESIGVTGQANGGWVPVNYNGRAGYVYAAYLSFD
- soluble fraction (log2): -0.0669

Sequence: HMPDKIDSAAQGILDKLIRNDGFMAVTDKSPPEAIYKLFGVSKKVFKQAIGSLYKNRLITIEDAGLRIIPQ
- soluble fraction (log2): -0.214

Sequence: HMPDLKIGKDHRLAEYIETKIAEDGYSPGAVLGEIKAKGLEFETEISKPTLYSYIDKGIFLTITNKELPV
- soluble fraction (log2): 0.0942

Sequence: HMPDLQKAIDDLLQVVDKRLNTSFESILNEVNSEKEAVAFFLALLEAVRWGFVKASQSDEGIKIEK
- soluble fraction (log2): -0.387

Sequence: HMPDLSAEERNIVEALQKSNDLQVNLIAVKTGMDMGTLSATLFGLEMKGLVKLMAGGTYHLI
- soluble fraction (log2): 0.191

Sequence: HMPDLSEDEEKIVSLLRDNNDLNVNIIVMRTQLPSATVTSSLFSLELKGVVRMYAGGMYHLM
- soluble fraction (log2): 0.0385

Sequence: HMPDLSYVDEVLNRYKGHKGTLITVLQQVQAHKGYLEKEALERVARSMGVPTARIYGVVTFYAQFR
- soluble fraction (log2): 0.099

Sequence: HMPDPVHAAYLRLAVLLTEQAIGPQVTEQQIRDRFALTRRQTSDLMGRLIREGIAEKRAGYGWNINTELTA
- soluble fraction (log2): -0.748

Sequence: HMPDVAIMNVSVEPEKKVVRLQVKAISLEALLDFSTRLEAIPARVELQNHTPSKELSQKWAVNATLIVIY
- soluble fraction (log2): -0.0366

Sequence: HMPDYYAILEVERTADAKTIKAAYRKLALAYHPDRNPGDQAAEERFKQINEAYAVLSDPEKRARYDRYGSV
- soluble fraction (log2): 0.139

Sequence: HMPEFKDMLKFFRMREHLSQSELAEKLGISASTVSMYEVGRRQPDFETEEKIADFFNTDLNTLRG
- soluble fraction (log2): -0.169

Sequence: HMPEGTYLEKLAIENNNLQLIGLSREASQLVQLLQDAPQWRKVNLTGVLQADGAASGRDRFTMTAELQ
- soluble fraction (log2): 0.187

Sequence: HMPEKNQITHLIRLIDDRDEFVRKRVREQLIKLGEDAIPFLEMAAKTENLEIQRIASEIIQAIIPRQ
- soluble fraction (log2): -0.282

Sequence: HMPELPPHELLRALMVEHDIKQSELPEVGPQPVVSDVLAGKRALNLRQVAALAARFHVPMEVFT
- soluble fraction (log2): -0.015

Sequence: HMPELSITDADIIVAGGRGMGSAENFGLIRELAGLLGAAVGASRVVVDAEWVDQKHLIGQTGK
- soluble fraction (log2): -0.507

Sequence: HMPELTASDEADLKALVGGDQGFEQMANWARSNLGEEEINRFDAVVDSNNKDAIHMAIQAMQARMNA
- soluble fraction (log2): -0.394

Sequence: HMPELTERELEVLLLTARGLPSSEAARLLFITRRTVAAHLTSIYGKLGARNKTEAVLAALKRGIIMLDQIG
- soluble fraction (log2): -1.46

Sequence: HMPESYFEMLQKLLETYALPQEGTIYFSAADLARMPQKFEDVIEQTAQKKGGHLVVSKEPKDMDGGFVLV
- soluble fraction (log2): -1.62

Sequence: HMPEVAHTIDMEAVNKHWDELPEREQRILVMRFYGNLTQTEIGERLGISQMHVSRLLARALSHLKSRLLD
- soluble fraction (log2): -0.046

Sequence: HMPEVYPFEVAEDDAGKRLDVFLSEEIEEFTRSFIQKLIAGGLASVNRAPARASYRVKPRDLVELQVPE
- soluble fraction (log2): -0.158

Sequence: HMPFNREYWIEQLLKEVGLMGTPYAELDKHEVELDSPTGRASGFKVNAKTYVDQQLLFIENEYNNQPE
- soluble fraction (log2): -0.899

Sequence: HMPFREGDEVFVELVEPHMYNEDDAVAKLDGYVVAVRGAAGLVGQKVLVRIERVGRSSAEATLVA
- soluble fraction (log2): -0.451

Sequence: HMPGEIKKIPINSISYQDLKQHPYFDAYLAKQVIKYRETKGRIENIEQFREATRAYQSLIEKVTPYLDFE
- soluble fraction (log2): -0.268

Sequence: HMPGGLSAEDVEKMVEKVLTVNGDVVEEIRSGRDPKGKKIKFLAGLVMRDARGQADAAAVSGILERRLKEG
- soluble fraction (log2): 0.371

Sequence: HMPGLITLEAAKTTALNHAKLTADQVTFVKQKLDRDDGRQVYEIEFYTSDYKEYDYEIDAVSGLILEVDYD
- soluble fraction (log2): -0.33

Sequence: HMPGLPLWAFSTRGSAIHTGASFRDGDGLLFGPESRGLPDWLLEEVGQDRVLRLPMRPGSRSLNLSNAV
- soluble fraction (log2): -1.7

Sequence: HMPGPAEMPGWITARAKKLGGQITPEAARALAAEMGSDTEQASREIEKLLTYVDYRRPVEEEDVALLTA
- soluble fraction (log2): 0.00808

Sequence: HMPGRKTTFEERLSIIEDLIKHDVNYSWAVDKYHVSYQQVYGWYQKYRKSGNDPQSLRDRRGK
- soluble fraction (log2): ≥ 0.43

Sequence: HMPGRPSRISDAVKDQIDHDLRKNPRDLGYSQNLWDGKLLSHHLKERYQITLGIRQAQRLFHQLGFRQR
- soluble fraction (log2): -0.0409
